Biological target: T1, human APRIL protein (R&D Systems, catalog #5860-AP-010/CF) (human, UniProt O75888 105-250, limits assumed)
T1 construct: Bought protein; also called human APRIL protein from R&D Systems; TNF13
T1 sequence (looked up): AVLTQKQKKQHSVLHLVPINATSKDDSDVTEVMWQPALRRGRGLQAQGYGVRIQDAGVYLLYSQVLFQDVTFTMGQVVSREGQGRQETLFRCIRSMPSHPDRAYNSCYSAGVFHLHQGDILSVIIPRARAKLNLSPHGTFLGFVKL
Assay: bio-layer interferometry, APRIL on AR2G sensor, BCMA-mouse Fc in solution
Experimental: Bio-layer interferometry was also used to measure binding between APRIL protein, and wild type or mutant BCMA proteins. Human APRIL protein (R&D Systems, catalog #5860-AP-010/CF) was loaded onto an Ar2G sensor (OctetRET96e) and reacted with 2.5 μg/mL of one of three types of human BCMA proteins including: wild type human BCMA-mouse Fc (SEQ ID NO:5), mutant-1 human BCMA-mouse Fc (17G-18G; SEQ ID NO:6), or mutant-2 human BCMA-mouse Fc (de132-35G; SEQ ID NO:7).

binding result: no binding (tested: 2.5 µg/mL)
B1: Mutant-1 human BCMA protein-mouse Fc (Fc fusion)
chain: MLQMAGQCSQNEYFDSGGHACIPCQLRCSSNTPPLTCQRYCNASVTNSVKGTNAGLGGLVDYKDDDDKTHTCPPCKCPAPNLLGGPSVFIFPPKIKDVLMISLSPIVTCVVVDVSEDDPDVQISWFVNNVEVHTAQTQTHREDYNSTLRVVSALPIQHQDWMSGKEFKCKVNNKDLPAPIERTISKPKGSVRAPQVYVLPPPEEEMTKKQVTLTCMVTDFMPEDIYVEWTNNGKTELNYKNTEPVLDSDGSYFMYSKLRVEKKNWVERNSYSCSVVHEGLHNHHTTKSFSRTPGK
notes: also called mutant-1 human BCMA-mouse Fc (17G-18G); mutant-1 BCMA protein

— patent US20210388097A1 (SORRENTO THERAPEUTICS, published 2021)
